Test results reported in EP4667489A1 (Kyinno Biotechnology Co., Ltd., dated 2025).
Where a chain is given by its changes, count along the chain named. Read-outs that look alike come from different tables or passages of the source.

Columns and labels:
[1] = target: T1, human PDL1 expressed on 293T-PDL1 cells (human, UniProt Q9NZQ7 19-290); assay: flow cytometry on 293T-PDL1 cells
T1 construct: whole, on cells; in the signalling assays PDL1 stood on 293T OS8-hPDL1 cells (Kyinno KC-1148); also called PDL1-expressing cells; 293T OS8-hPDL1 cells
T1 sequence (Q9NZQ7 19-290): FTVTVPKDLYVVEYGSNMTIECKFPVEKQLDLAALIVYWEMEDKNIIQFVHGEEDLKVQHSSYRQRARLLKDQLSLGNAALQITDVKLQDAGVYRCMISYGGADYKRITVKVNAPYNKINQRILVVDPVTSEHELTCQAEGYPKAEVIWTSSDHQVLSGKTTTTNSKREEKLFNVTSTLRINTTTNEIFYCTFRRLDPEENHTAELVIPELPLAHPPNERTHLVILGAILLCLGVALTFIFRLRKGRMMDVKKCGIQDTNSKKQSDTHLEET

[2] = target: T1, human PDL1 expressed on 293T-PDL1 cells; assay: cell-based or functional assay
[3] = target: T2, PDL1-mFc (fusion protein of the human PDL1 extracellular domain and mouse Fc; Kyinno, Cat No.: KP-1008) (human; mouse, UniProt Q9NZQ7 19-238); assay: flow cytometry, blocking of PDL1-mFc binding to 293T-PD1 cells
T2 construct: extracellular domain; bought; also called human PDL1-mFc; not shown: mouse Fc
T2 sequence (Q9NZQ7 19-238): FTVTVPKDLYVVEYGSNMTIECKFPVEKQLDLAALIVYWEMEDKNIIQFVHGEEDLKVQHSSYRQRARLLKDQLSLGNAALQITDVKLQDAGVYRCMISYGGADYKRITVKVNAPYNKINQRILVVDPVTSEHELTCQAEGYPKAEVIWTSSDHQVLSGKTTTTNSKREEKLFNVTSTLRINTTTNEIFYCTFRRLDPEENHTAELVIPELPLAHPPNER

[4] = target: T3, human EGFR expressed on CT26-EGFR cells (human, UniProt P00533 25-1210); assay: cell-based or functional assay
[5] = target: T3, human EGFR expressed on CT26-EGFR cells; assay: flow cytometry on CT26-EGFR cells
[6] = target: T4, EGFR-mFc (fusion protein of the human EGFR extracellular domain and mouse Fc; Kyinno, Cat No.: KP-1148) (human; mouse, UniProt P00533 25-645); assay: ELISA, blocking of EGFR-mFc binding to coated EGF-His
T4 construct: extracellular domain; bought; also called EGFR-Fc; not shown: mouse Fc

[7] = target: T5, PDL1-His (Kyinno, Cat No.: KP-1022) (UniProt Q9NZQ7 19-238, limits assumed); assay: BLI (ForteBio Octet), PDL1-His as mobile phase
T5 construct: not shown: His tag
T5 sequence (Q9NZQ7 19-238 limits assumed): as the sequence (Q9NZQ7 19-238) above

[8] = target: T6, PDL1-hFc (Kyinno, Cat No.: KP-1009) (human, UniProt Q9NZQ7 19-238, limits assumed); assay: flow cytometry, blocking of PDL1 Fc fusion (taken as PDL1-hFc) binding to 293T-PD1 cells
T6 construct: bought; not shown: human Fc (hFc)
T6 sequence (Q9NZQ7 19-238 limits assumed): as the sequence (Q9NZQ7 19-238) above

[9] = target: T1, human PDL1 expressed on 293T-PDL1 cells; assay: cell-based or functional assay; remark: listed apart in the source
[10] = target: T1, human PDL1 expressed on 293T-PDL1 cells; assay: flow cytometry on 293T-PDL1 cells; remark: listed apart in the source
[11] = target: T7, LAG3-hFc (fusion protein of the human LAG3 extracellular domain and human IgG1-Fc) (human, UniProt P18627 23-450); assay: flow cytometry, blocking of LAG3-hFc binding to Daudi cells
T7 construct: extracellular domain; not shown: human IgG1-Fc, Genbank CAC20454.1
T7 sequence (looked up): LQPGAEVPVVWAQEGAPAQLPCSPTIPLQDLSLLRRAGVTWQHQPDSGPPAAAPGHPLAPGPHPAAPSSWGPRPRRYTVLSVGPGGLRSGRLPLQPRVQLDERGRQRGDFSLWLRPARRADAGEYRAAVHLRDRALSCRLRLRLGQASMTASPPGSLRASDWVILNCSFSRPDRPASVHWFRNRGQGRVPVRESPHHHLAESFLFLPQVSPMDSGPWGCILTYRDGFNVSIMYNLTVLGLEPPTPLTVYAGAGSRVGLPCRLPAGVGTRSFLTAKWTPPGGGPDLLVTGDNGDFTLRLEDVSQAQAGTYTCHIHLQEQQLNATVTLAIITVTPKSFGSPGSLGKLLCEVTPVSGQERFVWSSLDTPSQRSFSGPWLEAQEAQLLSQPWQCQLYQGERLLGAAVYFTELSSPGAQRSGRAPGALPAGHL

[12] = target: T8, human LAG3 expressed on 293T-LAG3 cells (human, UniProt P18627 23-525); assay: flow cytometry on 293T-LAG3 cells
T8 construct: whole, on cells; 293T cells stably expressing human LAG3 (Kyinno KC-0214); also called LAG3-expressing cells
T8 sequence (looked up): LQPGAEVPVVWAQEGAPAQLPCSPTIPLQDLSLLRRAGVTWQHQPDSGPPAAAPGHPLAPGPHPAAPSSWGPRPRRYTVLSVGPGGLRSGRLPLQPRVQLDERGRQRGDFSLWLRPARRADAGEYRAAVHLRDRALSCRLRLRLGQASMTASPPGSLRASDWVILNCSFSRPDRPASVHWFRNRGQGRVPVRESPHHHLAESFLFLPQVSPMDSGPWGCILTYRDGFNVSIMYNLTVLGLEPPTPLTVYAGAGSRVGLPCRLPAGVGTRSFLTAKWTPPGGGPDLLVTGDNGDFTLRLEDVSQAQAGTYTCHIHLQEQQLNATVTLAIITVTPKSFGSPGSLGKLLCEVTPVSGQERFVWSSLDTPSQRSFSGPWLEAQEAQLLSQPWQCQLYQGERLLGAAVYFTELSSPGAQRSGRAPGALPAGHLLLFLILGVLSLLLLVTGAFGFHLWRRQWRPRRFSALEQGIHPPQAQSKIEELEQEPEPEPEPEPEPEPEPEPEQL

[13] = target: T9, EGFR-His (Kyinno, Cat No.: KP-1150) (UniProt P00533 25-645, limits assumed); assay: BLI (ForteBio Octet), EGFR-His as mobile phase
T9 construct: bought; not shown: His tag

[14] = target: T3, human EGFR expressed on CT26-EGFR cells; assay: cell-based or functional assay; remark: listed apart in the source
[15] = target: T10, EGFR-hFc (Kyinno, Cat No.: KP-1149) (UniProt P00533 25-645, limits assumed); assay: ELISA, blocking of EGFR Fc fusion (taken as EGFR-hFc) binding to coated EGF-His
T10 construct: bought; also called EGFR-Fc; not shown: human Fc (hFc)

[16] = target: T3, human EGFR expressed on CT26-EGFR cells; assay: flow cytometry on CT26-EGFR cells; remark: listed apart in the source
[17] = target: T11, PD1-hFc (fusion protein of the human PD1 extracellular domain and human IgG1-Fc) (human, UniProt Q15116 25-170); assay: flow cytometry, blocking of PD1-hFc binding to 293T-PDL1 cells
T11 construct: extracellular domain; also called human PD1-hFc; not shown: human IgG1-Fc, Genbank CAC20454.1
T11 sequence (Q15116 25-170): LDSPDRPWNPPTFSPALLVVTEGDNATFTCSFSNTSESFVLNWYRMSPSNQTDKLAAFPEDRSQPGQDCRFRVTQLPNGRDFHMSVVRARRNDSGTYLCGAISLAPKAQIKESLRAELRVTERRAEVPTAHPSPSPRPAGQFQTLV

[18] = target: T12, human PD1 expressed on 293T-PD1 cells (human, UniProt Q15116 25-288); assay: flow cytometry on 293T-PD1 cells
T12 construct: whole, on cells; 293T cells stably expressing human PD1 (Kyinno KC-0204); also called PD1-expressing cells; Jurkat NFAT-PD1-luc cells
T12 sequence (Q15116 25-288): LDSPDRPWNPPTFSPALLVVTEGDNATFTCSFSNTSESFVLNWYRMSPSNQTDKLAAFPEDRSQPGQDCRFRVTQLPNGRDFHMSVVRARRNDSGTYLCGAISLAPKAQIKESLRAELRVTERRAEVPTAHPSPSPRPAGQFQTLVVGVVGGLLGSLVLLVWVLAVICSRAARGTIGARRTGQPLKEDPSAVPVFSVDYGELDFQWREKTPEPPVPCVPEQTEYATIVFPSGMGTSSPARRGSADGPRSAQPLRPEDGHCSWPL

B1: KA-2016 H58E3-2V4-2-hIgG1 (antibody, V domains shown)
VH: QVQLVESGGGLVKPGGSLRLSCAASGFTFSDYGIHWIRQAPGKGLEWVAFISSGSSTIYYADAVKGRFTISRDNAKNSLYLQMNSLRAEDTAVYYCTRRDFYGSADAMDYWGQGTTVTVSS
VL: DIQLTQSPSTLSASVGDRVTITCSATSSIGYMHWYQQKPGTSPKRWIYDTSKLASGVPSRFSGSGSGTEYTLTISSLQPDDFATYYCQLWSSDPPYTFGQGTRLEIKR
notes: anti-PDL1 humanized antibody, human IgG1 / kappa
- EC50 [1]: 0.0419 µg/mL
- IC50, luciferase reporter (procedure of Example 25) [2]: 0.081 nM
- IC50 [3]: 0.0229 µg/mL

B2: KA-1063 H22A12-2V1-hIgG1 (antibody, V domains shown)
VH: QVQLVQSGAEVKKPGASVKVSCKASGYTFTDYYMNWVRQAPGQGLEWIGDINPNDGGTSYNQKFKGRATLTVDKSTSTAYMELSSLRSEDTAVYYCAREILYYVTSFYFDYWGQGTTVTVSS
VL: DIQITQSPSSLSASVGDRVTITCSATSGVSYMHWYQQKPGKAPKRLIYDTSRLASGVPSRFSGSGSGTDYTLTISSLQPEDFATYYCQQWSSNPPYTFGQGTRLEIKR
notes: anti-EGFR humanized antibody, human IgG1 / kappa
- IC50, luciferase reporter (procedure of Example 34) [4]: 0.389 nM
- EC50 [5]: 0.0382 µg/mL
- IC50 [6]: 0.0357 µg/mL

B3: anti-PDL1 murine antibody 58E3-2 (hybridoma cell line KD-22-0227 58E3-2) (antibody, V domains shown)
VH: QVQLKESGGGLVKPGGSLKLSCAASGFTFSDYGIHWVRQAPEKGLEWVAFISSGSSTIYYADTVKGRFTISRDNAKNTLFLQMTSLRSEDTAMYYCTRRDFYGSADAMDYWGQGTSVTVSS
VL: QIVLTQSPAIMSASPGEKVTMTCSASSSVSYMHWYQQKSGTSPKRWIYDTSKLASGVPARFSGSGSGTSYSLTISSMEAEDAATYYCQQWSSNPPYTFGSGTKLEIK
notes: murine antibody
- Kd [7]: 0.431 nM
- koff [7]: 0.000618 s⁻¹
- kon [7]: 1.43e+06 M⁻¹ s⁻¹
- IC50 [8]: 0.986 µg/mL
- IC50, luciferase reporter (Jurkat NFAT-PD1-luc + 293T OS8-hPDL1 cells) [9]: 1 µg/mL
- Top (fold increase in activation), luciferase reporter [9]: 3.52
- EC50 [10]: 0.245 µg/mL

B4: anti-LAG3 murine antibody 28G2 (hybridoma cell line KD-0019 28G2-7) (antibody, V domains shown)
VH: DVKLQESGPGLVKPSQSLSLTCSVTGYSFTSGYYWNWIRLFPGNKLEWMGYVSYFGTNNYNPSLKNRFSITRDTSKNQFFLKLNSVSTEDTATYYCARGEEWDWSFDVWGTGTTVTVSS
VL: B3 VL with Q1D, I10F, A59T, S92T, S100G
notes: murine antibody tested as hybridoma culture supernatant
- IC50 [11]: 1.26 µg/mL
- EC50 [12]: 1.08 µg/mL

B5: anti-EGFR murine antibody 22A12-2 (hybridoma cell line KD-22-0198 22A12-2) (antibody, V domains shown)
VH: EVQLQQSGPELVKPGASVKISCKASGYTFTDYYMNWVKQSHGKSLEWIGDINPNDGGTSYNQKFKGKATLTVDKSSSTAYMELRSLTSEDSAVYYCAREILYYVTSFYFDYWGQGTTLTVSS
VL: B3 VL with S26T, S28G, K52R
notes: murine antibody
- Kd [13]: 1.15 nM
- koff [13]: 0.00111 s⁻¹
- kon [13]: 965000 M⁻¹ s⁻¹
- IC50, luciferase reporter (293T-NFAT-Luc2-EGFR cells stimulated with EGF-His) [14]: 0.373 µg/mL
- IC50 [15]: 1.58 µg/mL
- EC50 [16]: 0.0242 µg/mL

B6: anti-PD1 murine antibody 107D12-10 (hybridoma cell line KD-22-0054 107D12-10) (antibody, V domains shown)
VH: QVQLKESGGGLVKPGGSLKLSCAASGFTFSDYGMHWVRQAPEKGLEWVAYISSGSYTIYYADTVRDRFTISRDSAKNTLFLQMTSLRSEDTAMYYCVRRGPGYFGSTALDYWGQGTTLTVSS
VL: B3 VL with S26T, S28G, K52R
notes: as for B4
- IC50 [17]: 2.26 µg/mL
- EC50 [18]: 0.685 µg/mL
